The target in the data set is GST-CHE (Arabidopsis thaliana, UniProt Q9FTA2 1-239). Put plainly: EMSA; 5 pmol protein, 50 fmol probe; no HaRxL10; LightShift Chemiluminescent EMSA Kit per manufacturer; 5 pmol protein, 50 fmol biotin probe, 200-fold unlabelled competitor; probes annealed in 10 mM Tris, 1 mM Na2EDTA, 50 mM NaCl; binding buffer, pH and temperature not stated. To be noted: protein: recombinant; tags: GST (pET-42a); chain copies: 2; label: 5'-biotin; blunt. For orientation: A gel shift assay detects complexes by their altered migration in electrophoresis.
GST-CHE, sequence (Q9FTA2 whole entry): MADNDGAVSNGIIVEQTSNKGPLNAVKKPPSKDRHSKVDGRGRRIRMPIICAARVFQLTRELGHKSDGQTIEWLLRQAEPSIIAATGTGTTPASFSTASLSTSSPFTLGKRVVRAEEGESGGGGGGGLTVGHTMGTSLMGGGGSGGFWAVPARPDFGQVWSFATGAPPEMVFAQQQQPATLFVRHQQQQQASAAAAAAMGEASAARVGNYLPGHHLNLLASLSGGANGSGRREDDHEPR

B1: TBS probe (dsDNA)
DNA 1: GTAGGTCCCACTAGGTAGGTCCCACTAGGTAGGTCCCACTAGGTAGGTCCCACTAGGTAGGTCCCACTAG
DNA 2: CTAGTGGGACCTACCTAGTGGGACCTACCTAGTGGGACCTACCTAGTGGGACCTACCTAGTGGGACCTAC
For B1, the binding result is given as “binds”.

Source of the values: paper PMC11814294, “A pathogen effector HaRxL10 hijacks the circadian clock component CHE to perturb both plant development and immunity”.
